Measured values as given in US20180127478A1.

Target: GH receptor (on Nb2 cells)
Experiment: cell-based or functional assay

Nb2 cell proliferation, EC50: 0.166 nM
Substance: commercial recombinant hGH (Somatropin, United States Pharmacopeia) (from UniProt P01241 27-217) (ligand)
